# From patent US9114144B2, “Kallikrein-inhibitor therapies” (Dyax Corp., priority 2002, dated 2015)
# Positions of bridges follow the written chain, without caps; N, C: chain ends. No end group written: not given here.
# What was measured:
# human plasma kallikrein = human plasma kallikrein (Homo sapiens, UniProt P03952); test: Kallikrein inhibition assay, Ki,app; format: biochemical; conditions: fold higher than aprotinin
# Method: The potency assay of KI polypeptides, such as PEP-1, described herein was a kinetic test, which measured fluorescence generation following the kallikrein-mediated cleavage of a substrate, […] amino methyl coumarin. A known amount of kallikrein was incubated with buffer, with a serially diluted KI polypeptide reference standard, or serially diluted KI polypeptide test samples. Each sample was run in triplicate. The substrate solution was added, and the plate read immediately using an excitation wavelength of 360 nm and an emission wavelength of 460 nm. At least two each of the reference standard and sample curves were required to have an R-squared value of ≧0.95 to be considered valid.
# kallikrein = test: Kallikrein inhibitory activity in plasma and CSF of non-ischemic mice after iv treatment; format: in vivo
# Method: […] analysis was performed to determine whether DX-88 was able to cross the blood-brain barrier. Non-ischemic mice were treated iv with saline or DX-88 (10 μg/mouse or 30 μg/mouse) and plasma was drawn 30 or 60 min after administration. Thirty minutes after DX-88 treatment, plasma kallikrein inhibitory activity was 2 and 4 times higher in mice treated with […], respectively.
# The same dose of DX-88 was given at the beginning of ischemic period. Twenty four hours after ischemia, neurological deficits and infarct size were evaluated.
# Chain of human plasma kallikrein (P03952 20-390 partner limits assumed): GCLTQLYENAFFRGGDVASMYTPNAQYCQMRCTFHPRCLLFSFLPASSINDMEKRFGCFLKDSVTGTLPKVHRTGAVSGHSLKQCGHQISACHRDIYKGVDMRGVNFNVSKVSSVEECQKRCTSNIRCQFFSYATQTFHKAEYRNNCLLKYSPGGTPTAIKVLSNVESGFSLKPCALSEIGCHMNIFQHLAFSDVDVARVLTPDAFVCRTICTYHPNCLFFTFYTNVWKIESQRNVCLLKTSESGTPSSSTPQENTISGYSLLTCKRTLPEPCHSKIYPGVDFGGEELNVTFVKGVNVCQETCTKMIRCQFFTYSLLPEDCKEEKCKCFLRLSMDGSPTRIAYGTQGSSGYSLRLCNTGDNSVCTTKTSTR
# Chain of human plasma kallikrein (P03952 391-638 limits assumed): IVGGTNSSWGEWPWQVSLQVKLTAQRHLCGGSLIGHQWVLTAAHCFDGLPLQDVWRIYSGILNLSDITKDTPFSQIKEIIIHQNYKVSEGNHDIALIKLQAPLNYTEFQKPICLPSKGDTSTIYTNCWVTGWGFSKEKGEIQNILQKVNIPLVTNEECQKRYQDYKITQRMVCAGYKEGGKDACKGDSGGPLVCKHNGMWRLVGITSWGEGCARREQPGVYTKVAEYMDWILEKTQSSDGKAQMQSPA
sequence,measurement,setting,value
"EAMHSFCAFKADDGPCRAAHPRWFFNIFTRQCEEFIYGGCEGNQNRFESLEECKKMCTRD (disulfide 7-57, 16-40, 32-53) [PEP-1]",affinity (Ki) for kallikrein relative to aprotinin,human plasma kallikrein,1000 times
same,affinity (Ki) for kallikrein relative to aprotinin,human plasma kallikrein; listed as DX-88,at least 1000 times
same,inhibitory activity in cerebral spinal fluid (CSF),"kallikrein; 30 μg iv, CSF drawn 30 or 60 min after administration",marked inhibitory activity
same,inhibitory activity in CSF,"kallikrein; 30 μg/mouse iv, thirty minutes after treatment",marked inhibitory activity
same,crossing of the blood-brain barrier,"kallikrein; intact blood-brain barrier, active form",can cross rapidly the intact blood-brain barrier
